The term Kd denotes the free concentration of one partner at which half of the binding sites on the other are occupied at equilibrium, for simple one-to-one binding. A high value points to a looser complex. For orientation: koff means a measure of how fast the partners let go of each other. For orientation: kon means a measure of how fast the partners come together. High values mean fast association, low ones slow association.

The values below come from patent US20210380637A1.

Bridges are numbered along the chain shown (N, C = ends).

One assay concerns the target human IgG. Description: SPR (BIAcore T200), human IgG immobilized on chip, peptide injected at 15.6-1000 nM. For orientation: SPR reads the build-up and loss of mass on a sensor chip optically.
Assay [1] concerns the target human serum-derived γ-globulin (Sigma-Aldrich). Description: column chromatography, peptide immobilized on 1 mL NHS-activated column, 1 mg/mL human γ-globulin at 1 mL/min.
For assay [2] the target is unchanged. Description: DBC on peptide-immobilized column after 10 wash cycles with 0.1 M NaOH.
For assay [3] the target is unchanged. The experiment in a line: DBC on peptide-immobilized column, 0 NaOH wash cycles.
The target is the same in assay [4]. Description: DBC on peptide-immobilized column after 2 wash cycles with 0.1 M NaOH.
Assay [5] has the same target. Description: DBC on peptide-immobilized column, 0 NaOH wash cycles (reference).
The target is the same in assay [6]. Description: DBC on peptide-immobilized column after 5 wash cycles with 0.1 M NaOH.
Assay [7] shares this target. Description: DBC on peptide-immobilized column after 1 wash cycle with 0.1 M NaOH.

In the assay with human IgG, {NH2‑PEG4}-GPDCAYHRGELVWCTFH-NH2 (linker 4-14 via 1,3‑dichloro‑2‑propanone) showed a dissociation constant (Kd) of 4900 nM and a koff of 0.005 s⁻¹. Moreover, in assay [1], the DBC (dynamic binding capacity, 10% breakthrough) was 2.3 mg/mL-column.

{NH2‑PEG4}-GPDCAYHRGELVWCTFH-NH2 (disulfide 4-14): the DBC 10% stood at 6.1 mg/mL in assay [2]; 13.5 mg/mL in assay [3]; 11.5 mg/mL in assay [4]; 8.9 mg/mL in assay [6]; 12.4 mg/mL in assay [7]. For the same molecule, the DBC 10% (% NaOH wash cycle 0) in assay [2] came out at 45.2%; in assay [4], 85.2%; in assay [5], 100%; in assay [6], 65.9%; in assay [7], 91.9%.

B1: cross-linked cyclic peptide of Example 1 (N-terminal PEG4-modified, C-terminal amidated …, the two outer cysteine residues linked as in formula CHEM-US-00008) (peptide)
peptide: GPDCAYHRGELVWCTFH
modifications: N-terminal H2N-PEG4; C-terminal amide; position 4 built as homoserine (Hse), its side-chain hydroxyl chlorinated and reacted with Cys 14, so that the two outer cysteine positions (4 and 14) are joined by the linker of drawing CHEM-US-00008 instead of a disulfide
On to B1, for which the DBC 10% in assay [2] was found to be 8.9 mg/mL; in assay [3], 9.4 mg/mL; in assay [4] it was 9.4 mg/mL; in assay [6] it was 9.2 mg/mL; in assay [7], 9.5 mg/mL. Further, the DBC 10% (% NaOH wash cycle 0) in assay [2] was 94.7%; in assay [4] it was 100%; in assay [5] it was 100%; in assay [6], 97.9%; in assay [7], 101%. The Kd with human IgG worked out at 340 nM. In the assay with human IgG, this molecule registered a koff of 0.22 s⁻¹. For the same molecule, in the assay with human IgG, the kon was 650000 M⁻¹ s⁻¹. In addition, the DBC (dynamic binding capacity, 10% breakthrough) in assay [1] is 9.4 mg/mL-column.
